Results from paper PMC4933183.

Columns and labels:
[1] = target: biotinylated human IgM (human); assay: SPR; BIAcore T100, 37 °C, HBS-EP; biotinylated human IgM on streptavidin chip (biotinylated human IgG as reference), gel-filtered monomeric DBL domains injected at 20 μl/min for 2 min to equilibrium; 1:1 Langmuir isotherm
[2] = target: SPAM fragment of DBLMSP2 (3D7) (Plasmodium falciparum (3D7 strain)); assay: SEC; size exclusion chromatography of the purified Cd4-tagged proteins; markers thyroglobulin, ferritin, aldolase, conalbumin, carbonic anhydrase
[3] = target: recombinant full-length DBLMSP2 (3D7), monobiotinylated (Plasmodium falciparum (3D7 strain)); assay: SPR; BIAcore T100, 37 °C, HBS-EP; biotinylated full-length DBLMSP or DBLMSP2 on streptavidin chip, purified human IgM injected 30 min at 10 μl/min to equilibrium; equilibrium fit to a simple Langmuir isotherm; values reflect overall binding avidity
[4] = target: recombinant full-length DBLMSP (3D7), monobiotinylated (Plasmodium falciparum (3D7 strain)); assay: as above

“DBL domain of DBLMSP2 (3D7) (domain or fragment)” was tested, and the Kd [1] was 600 nM.
“DBL domain of DBLMSP (3D7) (domain or fragment)” was tested, and the Kd [1] was 60 nM.
For “SPAM fragment of DBLMSP2 (3D7) (domain or fragment)”, the stoichiometry N [2] was > 4.
Work on human IgM (natural protein) yielded a Kd [3] of 1.1 nM and a Kd [4] of 0.3 nM.
